Experiment [1] deals with anti-CD28 Fab. The experiment in a line: competition ELISA, peptide titrated 0-100 uM against 1 nM anti-CD28 Fab, plate-bound CD28 as competitor.
Target sequence in this assay (VH, as listed by the source, chain 1 of 2): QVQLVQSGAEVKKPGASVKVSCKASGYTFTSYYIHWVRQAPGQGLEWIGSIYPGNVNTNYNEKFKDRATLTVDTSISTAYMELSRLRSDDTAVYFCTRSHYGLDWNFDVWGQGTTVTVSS
Target sequence in this assay (VL, as listed by the source, chain 2 of 2): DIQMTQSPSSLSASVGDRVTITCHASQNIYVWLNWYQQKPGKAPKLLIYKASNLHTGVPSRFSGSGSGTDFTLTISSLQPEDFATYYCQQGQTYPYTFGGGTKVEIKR
Experiment [2] deals with T1, anti-CD28 scFv (disulfide).
T1 construct: also called Anti-CD28 scFv (VH - linker 1 - VL) Disulfide mutation: G44C, G235C
Description: competition ELISA, peptide titrated 0-100 uM against 0.3 nM anti-CD28 scFv (disulfide), plate-bound CD28 as competitor.
T1 sequence (scFv, as listed by the source): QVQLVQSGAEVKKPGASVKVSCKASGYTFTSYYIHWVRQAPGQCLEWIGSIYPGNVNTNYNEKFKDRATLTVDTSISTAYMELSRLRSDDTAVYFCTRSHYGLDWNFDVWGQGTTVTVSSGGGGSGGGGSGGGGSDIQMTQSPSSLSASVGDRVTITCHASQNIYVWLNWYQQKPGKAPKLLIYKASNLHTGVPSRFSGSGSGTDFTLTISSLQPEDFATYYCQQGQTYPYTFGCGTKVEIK

Experiment [3] concerns the target anti-CD28 Fab. The experiment in a line: competition ELISA, peptide titrated 0-100 uM against 1 nM anti-CD28 Fab, plate-bound CD28 as competitor. The source holds these as a separate data set.
Target sequence in this assay (VH, as listed by the source, chain 1 of 2): as the sequence (VH, as listed by the source, chain 1 of 2) above
Target sequence in this assay (VL, as listed by the source, chain 2 of 2): as the sequence (VL, as listed by the source, chain 2 of 2) above
Experiment [4] deals with anti-CD28 Fab. The experiment is described as above. The source holds these as a separate data set.
Target sequence in this assay (VH, as listed by the source, chain 1 of 2): as the sequence (VH, as listed by the source, chain 1 of 2) above
Target sequence in this assay (VL, as listed by the source, chain 2 of 2): as the sequence (VL, as listed by the source, chain 2 of 2) above
The target in experiment [5] is T2, PSMA Fab (SEQ ID NOs: 19, 20).
T2 construct: also called 006 PSMA Fab; anti-PSMA Fab
The experiment in a line: competition ELISA, peptide titrated against 0.3 nM PSMA Fab on captured biotinylated PSMA.
Description: (§1) The concentration of peptide required to reduce the maximum signal by 50% (IC₅₀) was calculated in Graphpad Prism software.

Experiment [6] deals with anti-CD28 Fab. The experiment in a line: competition ELISA: peptide titrated (0-100 µM) with 1 nM anti-CD28 Fab, binding to plate-bound CD28.
Target sequence in this assay (VH, as listed by the source, chain 1 of 2): as the sequence (VH, as listed by the source, chain 1 of 2) above
Target sequence in this assay (VL, as listed by the source, chain 2 of 2): as the sequence (VL, as listed by the source, chain 2 of 2) above
Experiment [7] addresses T3, anti-CD28 scFv (disulfide).
T3 construct: also called Anti-CD28 scFv (VH - linker 1 - VL) Disulfide mutation: G44C, G235C
The experiment in a line: competition ELISA: peptide titrated (0-100 µM) with 0.3 nM anti-CD28 scFv (disulfide), binding to plate-bound CD28.
T3 sequence (scFv, as listed by the source): as the sequence (scFv, as listed by the source) above

Experiment [8] addresses T4, PSMA Fab (Fab biotinylated for capture on neutravidin plates (site not given)).
T4 construct: also called Anti-PSMA Fab; 006 PSMA Fab
Description: phage ELISA: biotinylated PSMA Fab on neutravidin plate, clonal phage supernatant, anti-M13 HRP; wells pre-incubated with PSMA antigen as competitor.

Experiment [9] deals with T4, PSMA Fab. The experiment in a line: phage ELISA: biotinylated PSMA Fab on neutravidin plate, clonal phage supernatant, anti-M13 HRP; blocking buffer alone.
Description: Clonal phage were harvested as crude supernatants and screened via standard ELISAs. […] Prior to the addition of clonal phage. wells were incubated with blocking buffer and PSMA antigen or blocking buffer alone. Without washing or aspirating, clonal phage supernatants were then added to the wells and incubated for a short time. Wells were then washed followed by detection of bound phage using a horse radish conjugated anti-M13 antibody.
In experiment [10] the target is T2, PSMA Fab (SEQ ID NOs: 19, 20). The experiment in a line: competition ELISA, peptide titrated against 0.3 nM PSMA Fab on captured biotinylated PSMA. This is another data set of the same source.
Description: as §1
The target is the same in experiment [11]. The description is as above. The source holds these as a separate data set.
Description: as §1

Read-outs that look alike come from different tables or passages of the source. Where no end group is shown, it is not given here.

On to YCAGHAWQYINKCL [Peptide-87], for which the IC50 was 13.8 µM with anti-CD28 Fab [1], > 100 µM in experiment [2], 12.6 µM with anti-CD28 Fab [3] and 9.76 µM in the experiment with anti-CD28 Fab [4].

YECHQGLFHRWCVN (cysteine pairing not given here; also: biotinylated (site not given here), PSMA peptide mask (P2)) [Peptide-158] yielded an IC50 in [5] of 17.3 µM. In other words, the double-digit micromolar range.

The molecule SCAAGASYAWPYCL [Peptide-92] gave an IC50 with anti-CD28 Fab [6] of 7.89 µM.

As for ACAAGASYAWPYCL [Peptide-99], the IC50 turned out to be 21 µM with anti-CD28 Fab [6] and 67 µM in experiment [7].

In the case of SCAAGASYAWPACL [Peptide-105], the results for the IC50 (with anti-CD28 Fab [6]; in experiment [7]) were 13 µM and 56.9 µM, respectively.

In turn, SCAAGASYAWPYCA [Peptide-106] displayed an IC50 in the experiment with anti-CD28 Fab [6] of 76.4 µM. This lies in the double-digit micromolar range.

For the molecule SCAAGAAYAWPYCL [Peptide-101], the IC50 with anti-CD28 Fab [6] is 7.42 µM; in experiment [7] it was 36.2 µM.

MRSVCVPSWMCSGF (peptide, not shown: large carriers, Clonal phage of the Peptide-180 library) [Phage-4012]: the “phage binding ELISA signal” value stood at 0.176 in the experiment with PSMA Fab [8] and 0.422 with PSMA Fab [9].

For the molecule LMKWCTPRWMCAAE (cysteine pairing not given here; also: biotinylated (site not given here), PSMA peptide mask (P2)) [Peptide-179], the results for the IC50 in experiment [10] and in experiment [11] were 4.44 µM and 4.6 µM, respectively.

Molecule HCKFHDYHSWYMCY (cysteine pairing not given here; also: biotinylated (site not given here), PSMA peptide mask (P2)) [Peptide-175] gave an IC50 in experiment [5] of 17.8 µM.

PELRCVPFWMCSFN (cysteine pairing not given here; also: biotinylated (site not given here), PSMA peptide mask (P2)) [Peptide-181]: the figures for the IC50 in experiment [10] and in experiment [11] were 11.2 µM and 26.1 µM, respectively.

Take APRMCSPPWMCYEL (peptide, not shown: large carriers, Clonal phage of the Peptide-180 library) [Phage-4013]: the “phage binding ELISA signal” value in the experiment with PSMA Fab [8] is 0.0661; in the experiment with PSMA Fab [9] it was 0.416.

The molecule PLCGTEEVWWECRL (cysteine pairing not given here; also: biotinylated (site not given here), PSMA peptide mask (P2)) [Peptide-166] yielded an IC50 in [5] of 19.2 µM.

For the molecule IAVLCQPNWMCAGF (cysteine pairing not given here; also: biotinylated (site not given here), PSMA peptide mask (P2)) [Peptide-180], the results for the IC50 in experiment [10] and in [11] were 4.54 µM and 4.5 µM, respectively.

With IECAYMTDQRFWCW (cysteine pairing not given here; also: biotinylated (site not given here), PSMA peptide mask (P2)) [Peptide-188], in [10], the IC50 stood at 7.22 µM.

For FEVRCVPTWMCAGQ (peptide, not shown: large carriers, Clonal phage of the Peptide-180 library) [Phage-4010], the “phage binding ELISA signal” value with PSMA Fab [8] turned out to be 0.069; in the experiment with PSMA Fab [9], 0.427.

Take GWRQCEPVWMCSGF (peptide, not shown: large carriers, Clonal phage of the Peptide-180 library) [Phage-4011]: the “phage binding ELISA signal” value with PSMA Fab [8] was found to be 0.0672; with PSMA Fab [9] it was 0.423.

In [10], YECHQGLFHRWCVN (cysteine pairing not given here; also: biotinylated (site not given here), PSMA peptide mask (P2)) [Peptide-185] gave an IC50 of 23 µM.
